According to the supplement of paper PMC10567573:

B1: ZNF511 (parent)
chain: AAPFRFVARPVRFPREHQFFEDGD

Variants of: B1
Test: protein stability index of a GFP-peptide fusion (GPS, HEK-293T) (PSI 1-6); higher = more stable
Conditions: c terminus: a fixed tail appended
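Also: lentivirally expressed fusions sorted by FACS into six bins by GFP to DsRed ratio, PSI derived from sequencing read proportions per bin multiplied by bin number.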

Point of comparison: AAPFRFVARPVRHPREHQFFEDGD [F13H], protein stability index 2.66. Against it:
- AAPFRFVARPHRFPREHQFFEDGD [V11H] — lower, 2.04
- AAPFRFVARPERFPREHQFFEDGD [V11E] — lower, 1.99
- AAPFRFVARPPRFPREHQFFEDGD [V11P] — lower, 2.03
- AAPFRFVARPQRFPREHQFFEDGD [V11Q] — lower, 2.38
- AAPFRFVARPFRFPREHQFFEDGD [V11F] — lower, 1.99
- AAPFRFWARPVRFPREHQFFEDGD [V7W] — higher, 3.67
- AAPFRFFARPVRFPREHQFFEDGD [V7F] — higher, 3.69
- AAPFRFDARPVRFPREHQFFEDGD [V7D] — higher, 3.73
- AAPFRFHARPVRFPREHQFFEDGD [V7H] — lower, 2.04
- AAPFRFEARPVRFPREHQFFEDGD [V7E] — higher, 4.61
- AAPFRFMARPVRFPREHQFFEDGD [V7M] — higher, 3.7
- AAPFRFCARPVRFPREHQFFEDGD [V7C] — lower, 2.65
- AAPFRFRARPVRFPREHQFFEDGD [V7R] — higher, 3.95
- AAPFRFAARPVRFPREHQFFEDGD [V7A] — higher, 3.9
- AAPFRFVARPVRFPRYHQFFEDGD [E16Y] — lower, 1.68
- AAPFRFVARPVRFPRSHQFFEDGD [E16S] — lower, 2.1
- AAPFRFVARPVRFPRRHQFFEDGD [E16R] — lower, 2.32
- AAPFRFVARPVRFPRLHQFFEDGD [E16L] — lower, 2.26
- AAPFRFVARPVRFPRTHQFFEDGD [E16T] — lower, 2.18
- AAPFRFVARPVRFPRKHQFFEDGD [E16K] — lower, 2.15
- AAPFRFVARPVRFPRNHQFFEDGD [E16N] — lower, 1.75
- AAPFRFVARPVRFPRGHQFFEDGD [E16G] — lower, 2.53
- AAPFRFVARPVRFPVEHQFFEDGD [R15V] — lower, 1.86
- AAPFRFVARPVRFPDEHQFFEDGD [R15D] — lower, 1.72
- AAPFRFVARPVRFPIEHQFFEDGD [R15I] — lower, 1.98
- AAPFRFVARPVRFPMEHQFFEDGD [R15M] — lower, 1.89
- AAPFRFVARPVRFPPEHQFFEDGD [R15P] — higher, 2.85
- AAPFRFVARPVRFPQEHQFFEDGD [R15Q] — lower, 2.51
- AAPFRFVARPVRFPNEHQFFEDGD [R15N] — lower, 1.62
- APPFRFVARPVRFPREHQFFEDGD [A2P] — lower, 2.32
- ARPFRFVARPVRFPREHQFFEDGD [A2R] — lower, 1.93
- AIPFRFVARPVRFPREHQFFEDGD [A2I] — higher, 2.69
- AQPFRFVARPVRFPREHQFFEDGD [A2Q] — lower, 2.1
- AEPFRFVARPVRFPREHQFFEDGD [A2E] — higher, 2.8
- ATPFRFVARPVRFPREHQFFEDGD [A2T] — lower, 2.28
- AKPFRFVARPVRFPREHQFFEDGD [A2K] — lower, 2.01
- AMPFRFVARPVRFPREHQFFEDGD [A2M] — lower, 2.11
- ADPFRFVARPVRFPREHQFFEDGD [A2D] — higher, 3.25
- ACPFRFVARPVRFPREHQFFEDGD [A2C] — lower, 2.05
- ALPFRFVARPVRFPREHQFFEDGD [A2L] — lower, 1.32
- AYPFRFVARPVRFPREHQFFEDGD [A2Y] — lower, 2.42
- AAPFIFVARPVRFPREHQFFEDGD [R5I] — higher, 2.67
- AAPFWFVARPVRFPREHQFFEDGD [R5W] — lower, 1.89
- AAPFDFVARPVRFPREHQFFEDGD [R5D] — higher, 4.8
- AAPFLFVARPVRFPREHQFFEDGD [R5L] — lower, 2.63
- AAPFEFVARPVRFPREHQFFEDGD [R5E] — higher, 4.26
- AAPFCFVARPVRFPREHQFFEDGD [R5C] — higher, 3.05
- AAPFQFVARPVRFPREHQFFEDGD [R5Q] — higher, 4.61
- AAPFRFVARKVRFPREHQFFEDGD [P10K] — higher, 2.77
- AAPFRFVARSVRFPREHQFFEDGD [P10S] — lower, 1.5
- AAPFRFVARYVRFPREHQFFEDGD [P10Y] — lower, 2.59
- AAPFRFVARIVRFPREHQFFEDGD [P10I] — higher, 4.18
- AAPFRFVARCVRFPREHQFFEDGD [P10C] — lower, 2.36
- AAPFRFVARFVRFPREHQFFEDGD [P10F] — lower, 2.44
- AAPFRFVARHVRFPREHQFFEDGD [P10H] — lower, 2.14
- AAPFRFVARAVRFPREHQFFEDGD [P10A] — lower, 1.96
- AAPFRFVARPVRKPREHQFFEDGD [F13K] — lower, 2.17
- AAPFRFVARPVRQPREHQFFEDGD [F13Q] — lower, 2.1
- AAPFRFVARPVRYPREHQFFEDGD [F13Y] — lower, 2.29
- AAPFRFVARPVRNPREHQFFEDGD [F13N] — lower, 1.95
- AAPFRFVARPVRGPREHQFFEDGD [F13G] — lower, 1.74
- AAPFRFVARPVRSPREHQFFEDGD [F13S] — lower, 1.86
- AAPFRFVARPVRCPREHQFFEDGD [F13C] — lower, 1.8
- AAPFRFVARPVRIPREHQFFEDGD [F13I] — lower, 2.48
- AAPFRFVPRPVRFPREHQFFEDGD [A8P] — lower, 2.27
- AAPFRFVYRPVRFPREHQFFEDGD [A8Y] — lower, 2.19
- AAPFRFVERPVRFPREHQFFEDGD [A8E] — lower, 1.98
- AAPFRFVIRPVRFPREHQFFEDGD [A8I] — higher, 2.77
- AAPFRFVHRPVRFPREHQFFEDGD [A8H] — lower, 2.58
- AAPFRFVARPVRFPREHQEFEDGD [F19E] — lower, 2.61
- AAPFRFVARPVRFPREHQYFEDGD [F19Y] — lower, 2.57
- AAPFRFVARPVRFPREHQVFEDGD [F19V] — lower, 2.11
- AAPFRFVARPVRFPREHQRFEDGD [F19R] — lower, 2.4
- AAPFRFVARPVRFPREHQNFEDGD [F19N] — lower, 2.52
- AAPFRFVARPVRFPREHQHFEDGD [F19H] — lower, 2.39
- AAPFRFVARPVRFPREHQWFEDGD [F19W] — lower, 2.04
- AASFRFVARPVRFPREHQFFEDGD [P3S] — higher, 2.76
- AAGFRFVARPVRFPREHQFFEDGD [P3G] — lower, 1.66
- AAHFRFVARPVRFPREHQFFEDGD [P3H] — lower, 2.59
- AANFRFVARPVRFPREHQFFEDGD [P3N] — lower, 2.04
- AAFFRFVARPVRFPREHQFFEDGD [P3F] — lower, 1.53
- AALFRFVARPVRFPREHQFFEDGD [P3L] — lower, 1.93
- AADFRFVARPVRFPREHQFFEDGD [P3D] — lower, 1.06
- AAEFRFVARPVRFPREHQFFEDGD [P3E] — lower, 1.61
- AAPFRFVARPVRFPREHQFFEDND [G23N] — lower, 2.36
- AAPFRFVARPVRFPREHQFFEDSD [G23S] — lower, 2.49
- AAPFRFVARPVRFPREHQFFEDMD [G23M] — lower, 1.91
- AAPFRFVARPVRFPREHQFFEDID [G23I] — lower, 1.51
- AAPFRFVARPVRFPREHQFFEDHD [G23H] — lower, 2.18
- AAPFRFVARPVRFPREHQFFEDCD [G23C] — lower, 1.67
- AAPFRFVARPVRFPREHQFFEDDD [G23D] — higher, 2.77
- AAPFRFVARPVRFPREHQFFEDVD [G23V] — lower, 1.9
- AAPFRFVARPVRFPREHQFFEDED [G23E] — lower, 2.25
